The values that follow come from paper doi:10.1101/2021.12.01.470723 (bioRxiv, 2021).

Data set [1] concerns the molecule itself. Description: SEC; rh Bri2 BRICHOS D148N monomer fraction at 0.5, 1, 5, 10, 15 and 100 µmol L^-1; monomer to dimer.
Data set [2] concerns the molecule itself. Description: SEC; Bri2 BRICHOS species after thrombin removal of His6-NT* from the fusion protein's monomer, dimer and oligomer fractions; 20 mmol L^-1 NaPi, 0.2 mmol L^-1 EDTA.
Data set [3] deals with the molecule itself. Put plainly: other fluorescence titration; Trp fluorescence of 2 µmol L^-1 rh Bri2 BRICHOS T206W monomers, 20 mmol L^-1 NaPi, 0.2 mmol L^-1 EDTA, pH 6.3-8.0; excitation 280 nm; monomer to dimer.
Data set [4] deals with the molecule itself. Put plainly: SEC; purified rh proSP-C BRICHOS variants on Superdex 200 GL. In general terms: SEC sorts molecules by how far they enter the pores of the column.

By stoichiometry N is commonly meant the number of molecules, sites or subunits per partner or assembly.

B1: rh Bri2 BRICHOS D148N (domain or fragment, human, UniProt Q9Y287 113-231, looked up)
chain: QTIEENIKIFEEEEVEFISVPVPEFADSDPANIVHNFNKKLTAYLDLNLDKCYVIPLNTSIVMPPRNLLELLINIKAGTYLPQSYLIHEHMVITDRIENIDHLGFFIYRLCHDKETYKL
notes: human integral membrane protein 2B (Bri2), BRICHOS domain, residues 113-231, with D148N; Isolated by SEC as monomer, dimer and oligomer fractions; the assay's format tells which fraction was used; also called D148N mutant; source: E. coli SHuffle T7, purified (Ni-NTA, thrombin cleavage, second Ni-NTA, SEC); not shown: His6, N-terminal, cleaved; NT* solubility tag, N-terminal, cleaved
Regarding B1, in data set [1], the “ratio of dimers to monomers at 0.5 µmol L^-1” value was ~1 dimers:monomers. In data set [2], the “stoichiometry N” value was found to be 2.

B2: rh Bri2 BRICHOS T206W (domain or fragment, human, UniProt Q9Y287 113-231, looked up)
chain: QTIEENIKIFEEEEVEFISVPVPEFADSDPANIVHDFNKKLTAYLDLNLDKCYVIPLNTSIVMPPRNLLELLINIKAGTYLPQSYLIHEHMVIWDRIENIDHLGFFIYRLCHDKETYKL
notes: human integral membrane protein 2B (Bri2), BRICHOS domain, residues 113-231, with T206W; Monomer and dimer fractions were used for Trp fluorescence; also called rh Bri2 BRICHOS Trp mutant; source: E. coli SHuffle T7, purified (Ni-NTA, thrombin cleavage, second Ni-NTA, SEC); not shown: His6, N-terminal, cleaved; NT* solubility tag, N-terminal, cleaved
As for B2, in data set [3], the binding result is on record as “binds”.

B3: recombinant human (rh) wildtype proSP-C BRICHOS (domain or fragment, UniProt P11686 86-197, looked up)
chain: EHLVTTATFSIGSTGLVVYDYQQLLIAYKPAPGTCCYIMKIAPESIPSLEALTRKVHNFQMECSLQAKPAVPTSKLGQAEGRDAGSAPSGGDPAFLGMAVSTLCGEVPLYYI
notes: human prosurfactant protein C (proSP-C), BRICHOS domain, residues 86-197; By SEC mainly a trimer, with some dimers and monomers; also called rh proSP-C BRICHOS; wt proSP-C BRICHOS; source: E. coli Origami 2 (DE3) pLysS, purified (Ni-NTA, ion exchange QFF; thrombin cleavage); not shown: thioredoxin, N-terminal, cleaved
As for B3, the “stoichiometry N” value in data set [4] was 3.

B4: rh proSP-C BRICHOS D105N (domain or fragment, human, UniProt P11686 86-197, looked up)
chain: EHLVTTATFSIGSTGLVVYNYQQLLIAYKPAPGTCCYIMKIAPESIPSLEALTRKVHNFQMECSLQAKPAVPTSKLGQAEGRDAGSAPSGGDPAFLGMAVSTLCGEVPLYYI
notes: human prosurfactant protein C (proSP-C), BRICHOS domain, residues 86-197, with D105N; By SEC a trimer, with more dimers and less monomers than the wildtype; also called D105N mutant; source: E. coli Origami 2 (DE3) pLysS, purified (Ni-NTA, ion exchange QFF; thrombin cleavage); not shown: thioredoxin, N-terminal, cleaved
Regarding B4, the “stoichiometry N” value in data set [4] turned out to be 3.
